The record followed here is patent publication US20090098549, “SELEX AND PHOTOSELEX” (SOMALOGIC, INC., published 2009).

For the data set, the target named is beta-catenin (UniProt P35222 P35222:2-781). Briefly: photocrosslink returned to full activity without 3' fixed region. The settings on record: tags: NHS-PEO4-biotin or His tag (assay used TALON beads); label: 32P. As to the method:
Radiolabeled aptamer (100 pM) was denatured and renatured as described above, with, or without a 100-fold excess of unlabeled 3′ primer. The samples were incubated with or without 10 nM β-catenin protein in SB17 for 30 minutes at 37° C., after which complexes were crosslinked by irradiation with an OAI Hg lamp (Optical Associates, Inc. model 0131-0003-01, 500 W, with 310 nm mirror set) for 10 minutes at 37° C. Samples were mixed with 2× formamide loading buffer, heated for 10 minutes at 70° C., and loaded on a 10% polyacrylamide TBE-urea gel. Phosphorimages were collected with a FUJI FLA-3000 FIG. 7A. Crosslink activity was determined for each sample by quantifying the free aptamer and aptamer:protein signals with FUJI ImageGauge image analysis software and calculating the percent of total DNA crosslinked with target protein and subtracting the percent crosslinked without protein.

Chain of beta-catenin (P35222 2-781, one chain of several): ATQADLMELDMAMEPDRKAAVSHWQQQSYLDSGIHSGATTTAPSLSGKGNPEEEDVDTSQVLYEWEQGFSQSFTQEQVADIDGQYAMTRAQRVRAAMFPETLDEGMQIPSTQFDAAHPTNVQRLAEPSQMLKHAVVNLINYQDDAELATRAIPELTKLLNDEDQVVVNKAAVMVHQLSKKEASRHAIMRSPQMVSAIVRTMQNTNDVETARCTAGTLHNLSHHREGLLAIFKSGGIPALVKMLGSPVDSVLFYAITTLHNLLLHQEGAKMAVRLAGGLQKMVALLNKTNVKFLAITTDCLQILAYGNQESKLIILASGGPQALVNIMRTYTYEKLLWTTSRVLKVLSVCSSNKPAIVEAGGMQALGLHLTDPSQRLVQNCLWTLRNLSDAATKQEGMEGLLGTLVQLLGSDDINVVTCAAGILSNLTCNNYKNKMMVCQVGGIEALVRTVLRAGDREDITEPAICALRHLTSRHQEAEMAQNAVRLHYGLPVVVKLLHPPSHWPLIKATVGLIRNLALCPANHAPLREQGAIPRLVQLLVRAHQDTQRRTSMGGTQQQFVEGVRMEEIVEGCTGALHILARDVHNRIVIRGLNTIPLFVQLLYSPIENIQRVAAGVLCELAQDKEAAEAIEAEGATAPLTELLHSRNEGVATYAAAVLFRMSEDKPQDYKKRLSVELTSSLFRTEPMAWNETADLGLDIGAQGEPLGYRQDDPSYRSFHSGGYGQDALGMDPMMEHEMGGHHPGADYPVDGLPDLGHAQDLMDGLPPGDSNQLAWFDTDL

B1: 2092-68-6 (ssDNA)
DNA: ATATATATGAGTGACCGTCTGCCTGAGCUGCGGUUGAUGAUAUACUUCGCUUUCACUGCUCACAC
modifications: X=ANA-dT, Z=BzdU
Regarding B1, the binding result is listed as “binds”.
